In the Immune Epitope Database (IEDB):
pIC50, pKd: −log10 of the molar value. One block for each sequence: values may come before it.

What was measured:
[1] = biological target: HLA-A*02:01; assay: IEDB peptide-MHC binding, purified MHC/direct/fluorescence; filed as Kd, often an IC50 or EC50 that approximates it; ≥ and ≤ were set here for values at or beyond the usual limits of such assays
[2] = biological target: HLA-B*46:01; assay: IEDB peptide-MHC binding, purified MHC/competitive/fluorescence; filed as Kd, often an IC50 or EC50 that approximates it; ≥ and ≤ were set here for values at or beyond the usual limits of such assays
[3] = biological target: HLA-A*69:01; assay: as above; conditions: source organism: Homo sapiens
[4] = biological target: HLA-A*26:01; assay: as above
[5] = biological target: HLA-B*39:01; assay: as above
[6] = biological target: HLA-B*15:17; assay: as above
[7] = biological target: HLA-B*57:01; assay: as above
[8] = biological target: HLA-B*27:03; assay: as above
[9] = biological target: HLA-B*18:01; assay: as above
[10] = biological target: HLA-B*51:01; assay: as above
[11] = biological target: HLA-B*15:01; assay: as above
[12] = biological target: HLA-A*11:01; assay: IEDB peptide-MHC binding, purified MHC/competitive/fluorescence; ≥ and ≤ were set here for values at or beyond the usual limits of such assays
[13] = biological target: HLA-B*46:01; assay: IEDB peptide-MHC binding, purified MHC/direct/fluorescence; filed as Kd, often an IC50 or EC50 that approximates it; ≥ and ≤ were set here for values at or beyond the usual limits of such assays
[14] = biological target: HLA-A*01:01; assay: as above
[15] = biological target: HLA-A*31:01; assay: as above
[16] = biological target: HLA-A*69:01; assay: as above
[17] = biological target: HLA-B*08:01; assay: as above
[18] = biological target: HLA-B*40:01; assay: as above
[19] = biological target: HLA-A*29:02; assay: as above
[20] = biological target: HLA-B*58:01; assay: as above
[21] = biological target: HLA-B*27:05; assay: as above
[22] = biological target: HLA-A*03:01; assay: as above
[23] = biological target: HLA-B*57:01; assay: as above
[24] = biological target: HLA-A*11:01; assay: as above
[25] = biological target: HLA-B*44:02; assay: as above
[26] = biological target: HLA-B*18:01; assay: as above
[27] = biological target: HLA-B*15:01; assay: as above
[28] = biological target: HLA-A*02:01; assay: IEDB peptide-MHC binding, purified MHC/competitive/fluorescence; ≥ and ≤ were set here for values at or beyond the usual limits of such assays; conditions: source organism: Zaire ebolavirus
[29] = biological target: HLA-A*02:12; assay: IEDB peptide-MHC binding, purified MHC/direct/fluorescence; filed as Kd, often an IC50 or EC50 that approximates it; ≥ and ≤ were set here for values at or beyond the usual limits of such assays; conditions: source organism: Zaire ebolavirus
[30] = biological target: HLA-A*68:02; assay: as above; conditions: source organism: Zaire ebolavirus
[31] = biological target: HLA-A*24:03; assay: as above; conditions: source organism: Zaire ebolavirus
[32] = biological target: HLA-B*48:01; assay: as above; conditions: source organism: Ebola virus - Gabon (1994-1997)
[33] = biological target: HLA-A*02:19; assay: as above; conditions: source organism: Zaire ebolavirus
[34] = biological target: HLA-A*02:17; assay: IEDB peptide-MHC binding, purified MHC/competitive/radioactivity; filed as Kd, often an IC50 or EC50 that approximates it; ≥ and ≤ were set here for values at or beyond the usual limits of such assays
[35] = biological target: HLA-A*02:01; assay: as above
[36] = biological target: HLA-A*03:01; assay: IEDB peptide-MHC binding, purified MHC/competitive/fluorescence; filed as Kd, often an IC50 or EC50 that approximates it; ≥ and ≤ were set here for values at or beyond the usual limits of such assays
[37] = biological target: HLA-B*15:17; assay: IEDB peptide-MHC binding, purified MHC/direct/fluorescence; filed as Kd, often an IC50 or EC50 that approximates it; ≥ and ≤ were set here for values at or beyond the usual limits of such assays; conditions: source organism: West Nile virus
[38] = biological target: HLA-A*02:01; assay: IEDB peptide-MHC binding, purified MHC/competitive/fluorescence; filed as Kd, often an IC50 or EC50 that approximates it; ≥ and ≤ were set here for values at or beyond the usual limits of such assays; conditions: source organism: Cryptococcus neoformans var. neoformans B-3501A
[39] = biological target: HLA-A*68:02; assay: IEDB peptide-MHC binding, purified MHC/competitive/radioactivity; filed as Kd, often an IC50 or EC50 that approximates it; ≥ and ≤ were set here for values at or beyond the usual limits of such assays; conditions: source organism: Dengue virus 3 Martinique/1243/1999
[40] = biological target: HLA-A*02:06; assay: as above; conditions: source organism: Dengue virus 3 Martinique/1243/1999
[41] = biological target: HLA-A*02:03; assay: as above; conditions: source organism: Dengue virus 3 Martinique/1243/1999
[42] = source organism: Sudan ebolavirus
[43] = source organism: Reston ebolavirus - Reston
[44] = source organism: Reston ebolavirus
[45] = source organism: Zaire ebolavirus
[46] = source organism: Ebola virus - Gabon (1994-1997)
[47] = source organism: Dengue virus 4 Dominica/814669/1981
[48] = source organism: Cryptococcus neoformans var. neoformans B-3501A
[49] = source organism: Dengue virus 3 China/80-2/1980
[50] = source organism: Dengue virus 1 Singapore/S275/1990

pKd ([1]; source organism: Mus musculus): 6.36
pKd ([2]; source organism: Homo sapiens): ≤ 4.70
pKd [3]: ≤ 4.70
pKd ([4]; source organism: Homo sapiens): ≤ 4.70
pKd ([5]; source organism: Homo sapiens): ≤ 4.70
pKd ([6]; source organism: Homo sapiens): ≤ 4.70
pKd ([7]; source organism: Homo sapiens): ≤ 4.70
pKd ([8]; source organism: Homo sapiens): ≤ 4.70
pKd ([9]; source organism: Homo sapiens): ≤ 4.70
pKd ([10]; source organism: Homo sapiens): ≤ 4.70
pKd ([11]; source organism: Homo sapiens): ≤ 4.70
Sequence: FLQQRKPPL

Sequence: GEWAFWENK
pIC50 [12, 42]: 4.58

Sequence: FHRKKTDAL
pKd [13, 43]: ≤ 4.70
pKd [14, 43]: ≤ 4.70
pKd [15, 43]: ≤ 4.70
pKd [16, 43]: ≤ 4.70
pKd [17, 43]: 6.35
pKd [18, 43]: ≤ 4.70
pKd [19, 43]: ≤ 4.70
pKd [20, 43]: ≤ 4.70
pKd [1, 43]: ≤ 4.70
pKd [21, 43]: ≤ 4.70
pKd [22, 43]: ≤ 4.70
pKd [23, 43]: ≤ 4.70
pKd [24, 43]: ≤ 4.70
pKd [25, 43]: ≤ 4.70
pKd [26, 43]: ≤ 4.70
pKd [27, 43]: ≤ 4.70
pKd [4, 44]: ≤ 4.70
pKd [6, 44]: ≤ 4.70
pKd [8, 44]: ≤ 4.70

Sequence: VLDHILQKT
pIC50 [28]: 5.58
pIC50 [12, 45]: 4.26

pKd ([1]; source organism: Homo sapiens): 8.12
pKd ([2]; source organism: Homo sapiens): ≤ 4.70
pKd [3]: ≤ 4.70
pKd ([4]; source organism: Homo sapiens): ≤ 4.70
pKd ([5]; source organism: Homo sapiens): ≤ 4.70
pKd ([6]; source organism: Homo sapiens): ≤ 4.70
pKd ([7]; source organism: Homo sapiens): ≤ 4.70
pKd ([8]; source organism: Homo sapiens): ≤ 4.70
pKd ([9]; source organism: Homo sapiens): ≤ 4.70
pKd ([10]; source organism: Homo sapiens): ≤ 4.70
pKd ([11]; source organism: Homo sapiens): ≤ 4.70
Sequence: YITDYSNDI

Sequence: QLSLKMLSL
pKd [29]: ≤ 4.70
pKd [13, 46]: ≤ 4.70
pKd [14, 46]: ≤ 4.70
pKd [15, 46]: ≤ 4.70
pKd [16, 46]: ≤ 4.70
pKd [17, 46]: 6.09
pKd [18, 46]: ≤ 4.70
pKd [19, 46]: ≤ 4.70
pKd [20, 46]: ≤ 4.70
pKd [30]: ≤ 4.70
pKd [31]: ≤ 4.70
pKd [32]: ≤ 4.70
pKd [1, 46]: ≤ 4.70
pKd [21, 46]: ≤ 4.70
pKd [22, 46]: ≤ 4.70
pKd [23, 46]: ≤ 4.70
pKd [24, 46]: ≤ 4.70
pKd [25, 46]: ≤ 4.70
pKd [26, 46]: ≤ 4.70
pKd [33]: ≤ 4.70
pKd [27, 46]: ≤ 4.70
pKd [4, 45]: ≤ 4.70
pKd [5, 45]: ≤ 4.70
pKd [8, 45]: ≤ 4.70
pKd [10, 45]: ≤ 4.70

Sequence: GVNNLEHGL
pIC50 [28]: 5.19
pIC50 [12, 45]: ≤ 3.88

Sequence: SMGLITIAV
pKd [34, 47]: 6.11
pKd [35, 47]: 8.00

Sequence: LLANILSEK
pKd ([36]; source organism: Rickettsia sibirica 246): 8.11

Sequence: RAWNSGYEW
pKd [37]: 8.36

Sequence: AIDDFCLFA
pKd [2, 48]: ≤ 4.70
pKd [4, 48]: ≤ 4.70
pKd [5, 48]: ≤ 4.70
pKd [38]: 7.87
pKd [36, 48]: ≤ 4.70
pKd [7, 48]: ≤ 4.70
pKd [8, 48]: ≤ 4.70
pKd [9, 48]: ≤ 4.70
pKd [11, 48]: ≤ 4.70

Sequence: EDDDAASSR
pIC50 [12, 42]: ≤ 4.15

Sequence: LMSGKDVFYL
pKd [34, 49]: 8.06
pKd [35, 49]: 8.32

Sequence: YMGEDGCWYG
pKd [34, 49]: 5.22
pKd [35, 49]: 6.68

Sequence: GLFNYFFGK
pKd ([36]; source organism: Entamoeba histolytica HM-1:IMSS): 7.39

Sequence: YLALMATFKM
pKd [34, 50]: 6.74
pKd [35, 50]: 7.89

pKd ([36]; source organism: Escherichia coli 536): 7.04
Sequence: VLGYSRMLY

Sequence: QAKKDFFSS
pIC50 [12, 45]: 4.18

Sequence: FLAIPPTAGV
pKd [39]: 8.01
pKd [40]: 6.92
pKd [34, 49]: 7.92
pKd [41]: 8.76

pKd ([1]; source organism: Homo sapiens): 9.10
pKd ([2]; source organism: Homo sapiens): ≤ 4.70
pKd ([4]; source organism: Homo sapiens): ≤ 4.70
pKd ([6]; source organism: Homo sapiens): ≤ 4.70
pKd ([7]; source organism: Homo sapiens): ≤ 4.70
pKd ([8]; source organism: Homo sapiens): ≤ 4.70
pKd ([9]; source organism: Homo sapiens): ≤ 4.70
pKd ([10]; source organism: Homo sapiens): ≤ 4.70
pKd ([11]; source organism: Homo sapiens): ≤ 4.70
Sequence: MQDVFTFYV
